From patent US20110126299A1 (published 2011) come the findings set out here.

For this test, the target named is Id(λ2^315)-peptide (amino acids 91 to 101) presented on I-E^d (mouse, UniProt P01904 26-216; P01915 32-225). The test is described as follows: cell-based or functional assay.
Id(λ2^315)-peptide (amino acids 91 to 101) presented on I-E^d, sequence (P01904 26-216, chain 1 of 2): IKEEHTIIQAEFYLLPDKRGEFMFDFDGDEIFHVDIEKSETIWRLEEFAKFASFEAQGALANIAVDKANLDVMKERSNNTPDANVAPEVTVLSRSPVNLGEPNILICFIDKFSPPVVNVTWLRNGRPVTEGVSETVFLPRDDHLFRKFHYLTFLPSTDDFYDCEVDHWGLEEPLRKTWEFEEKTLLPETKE
Id(λ2^315)-peptide (amino acids 91 to 101) presented on I-E^d, sequence (P01915 32-225, chain 2 of 2): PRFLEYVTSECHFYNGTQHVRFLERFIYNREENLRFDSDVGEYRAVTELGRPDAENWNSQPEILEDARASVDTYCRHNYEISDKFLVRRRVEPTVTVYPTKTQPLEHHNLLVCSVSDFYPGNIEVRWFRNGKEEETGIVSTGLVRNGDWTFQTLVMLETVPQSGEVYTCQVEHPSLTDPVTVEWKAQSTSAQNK

B1: Id-specific αβ TCR specific for the Id(λ2^315)-peptide (amino acids 91 to 101) presented on I-E^d (TCR, V domains shown)
V domain 1: QQKVQQSPESLIVPEGAMTSLNCTFSDSASQYFAWYRQQSGKAPKALMSIFSNGEKEEGRFTIHLNKASLHFSLHIRDSQPSDSALYLCAVRGPNTGNYKYVFGAGTRLKVIA
V domain 2: EAAVTQSPRNKVAVTGGKVTLSCNQTNNHNNMYWYRQDTGHGLRLIHYSYGAGSTEKGDIPDGYKASRPSQENFSLILELATPSQTSVYFCASGDAGQGHSDYTFGSGTRLLVI
For the molecule B1, the “light emissions (NF-κB-luciferase bioluminescence in vivo, 24 hours after transfer of Id^+ splenocytes into RAG2^-/^- mice carrying Id-specific Luc^+ T cells)” value amounted to 4 fold.
